Reference: patent publication US7989192B2, “Modified beta-lactamase and method for its preparation” (IPSAT Therapies Oy, priority 2006, dated 2011)

Key:
Test in all cases: purified protein, by the assay type
Type in all cases: biochemical, Bacillus cereus
Settings in all cases: other: 10 mM phosphate buffer, pH 7.0, 30° C, Hanes plot, mean of three independent measurements
[1] = tested on: CO/N=C(\C(=O)N[C@@H]1C(=O)N2C(C(=O)O)=C(COC(C)=O)CS[C@H]12)c1csc(N)n1
Experimental: (§1) The enzyme kinetic parameters kcat and Km were determined from initial rates by Hanes plot. The reactions were performed in 10 mM phosphate buffer, pH 7.0 at 30° C. The reaction cuvette (one mL) contained about 5 pmol of enzyme in all reactions except 1.7 pmol of enzyme in the meropenem assay. The hydrolysis of various beta-lactam substrates was spectrophometrically recorded at a wavelength specific for each substrate.
(§2) Values for different kinetic parameters (kcat, Km and kcat/Km) that represent mean values obtained from three independent measurements are reported in Table 6.

[2] = tested on: C[C@@H](O)[C@H]1C(=O)N2C(C(=O)O)=C(S[C@@H]3CN[C@H](C(=O)N(C)C)C3)[C@H](C)[C@H]12
Experimental: as §1, §2

[3] = tested on: CC1(C)S[C@@H]2[C@H](NC(=O)[C@H](N)c3ccccc3)C(=O)N2[C@H]1C(=O)O
Experimental: as §1, §2

[4] = tested on: CO/N=C(\C(=O)N[C@@H]1C(=O)N2C(C(=O)O)=C(CSc3nc(=O)c(=O)[nH]n3C)CS[C@H]12)c1csc(N)n1
Experimental: as §1, §2

[5] = tested on: CC1(C)S[C@@H]2[C@H](NC(=O)[C@H](N)c3ccc(O)cc3)C(=O)N2[C@H]1C(=O)O
Experimental: as §1, §2

[6] = tested on: CO/N=C(\C(=O)N[C@@H]1C(=O)N2C(C(=O)O)=C(COC(N)=O)CS[C@H]12)c1ccco1
Experimental: as §1, §2

[7] = tested on: CCN1CCN(C(=O)N[C@@H](C(=O)N[C@@H]2C(=O)N3[C@@H]2SC(C)(C)[C@@H]3C(=O)O)c2ccccc2)C(=O)C1=O
Experimental: as §1, §2

## P2A metallo-beta-lactamase (Bacillus cereus)
[1]
  Km: 66 µM
[2]
  Km: 410 µM
[3]
  Km: 942 µM
[4]
  Km: 68 µM
[5]
  Km: 716 µM
[6]
  Km: 27 µM
[7]
  Km: 372 µM
